Results reported in patent US20260265360A1, “USE OF ANTI-FAM19A5 ANTAGONISTS FOR TREATING HEARING DISORDERS” (NEURACLE SCIENCE CO., LTD., priority 2023, published 2026).

What was measured:
Format in all cases: binding
FAM19A5 antigen = FAM19A5 antigen (Homo sapiens, UniProt Q7Z5A7); assay: Cross-competition two-site sandwich ELISA; details: antibodies 1-65, P2-A03, P2-F11, 13B4, 2-13, 3-2; cross-competition = S/N ratio lower than 2
Protocol: The term “S/N” refers to the signal to noise ratio, which is measured as follows: [O.D. of 10 ng/ml antigen]/[O.D. of 0 ng/ml antigen].
Next, a two-site sandwich ELISA was used as described below to assess whether the different anti-FAM19A5 antibodies with similar binding epitopes cross-compete with each other.
First, the indicated anti-FAM19A5 antibodies were diluted in 1×PBS to a concentration of 10 μg/mL. The diluted anti-FAM19A5 antibodies (10 μg/mL in 1×PBS) (“capture antibody”) were used to coat the 96-well plates (100 μL/well) at 37° C. for approximately 1 hour. After the incubation, the plates were washed with the washing buffer (0.01% Tween-20/PBS; also called 0.01% PBST) for a total of five washes, blocked with the blocking solution (5% BSA/PBS; also called 5% PBSA) (250 μL/well) for one hour at 37° C., and then washed again. Next, 100 μg/mL of the FAM19A5 antigen (diluted in PBS containing 5% BSA, 0.01% Tween-20; also called 5% PBSAT; “diluent buffer) was added to each of the wells, and the 96-well plates were incubated for 2 hours at 37° C. After the incubations, the plates were washed using 0.01% PBST for a total of five washes. After the final wash, the indicated biotinylated anti-FAM19A5 antibodies (“detection antibody”) (diluted to lug/mL in 5% PBSAT) were added to the relevant wells (100 μL volume) and the plates were incubated for an additional 1 hour at 37° C. Afterwards, the plates were washed again with 0.01% PBST (five total washes). Next, 100 μL of the diluted (1/2000 in 5% PBSAT) Streptavidin-HRP (1 mg/mL, Sigma, USA) was added to the wells, and the plates were incubated for 30 minutes at room temperature. The plates were then washed and treated with 100 μL of the TMB substrate ([…], Thermo Fisher Scientific). After an additional 30-minute incubation at room temperature, the color change reaction was induced by the addition of the TMB substrate. This reaction was stopped using 50 μL of sulfuric acid (2N H2SO4), and the extent of color change was detected via absorption at 450 nm with reference wavelength at 620 nm using a 96 well microplate reader (Molecular Device).

FAM19A5 mutants M1 to M8 [1] = biological target: T1, FAM19A5 mutants M1 to M8 (Homo sapiens, UniProt Q7Z5A7); assay: Epitope mapping ELISA with FAM19A5 mutants M1-M8
T1 construct: made in house; host or cells: phage display with helper phage
T1 sequence (Q7Z5A7 with tags, fused parts or gaps isoform Q7Z5A7-2, change not shown): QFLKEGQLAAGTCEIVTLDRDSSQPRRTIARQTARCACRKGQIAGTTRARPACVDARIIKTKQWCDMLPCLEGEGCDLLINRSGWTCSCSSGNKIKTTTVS
Protocol: (§1) To further characterize the binding epitopes of the anti-FAM19A5 antibodies disclosed in the present disclosure, the amino acid sequences for the different FAM19 family members (i.e., FAM19A1-5) were aligned. […] The amino acid sequences of these regions were replaced with the consensus sequence of the corresponding regions for the FAM19A1-4 proteins. See Table 13 (the mutated amino acid residues are bolded and underlined).
(§2) The mutant FAM19A5-expressing phages were prepared as follows. To prepare the media for phage culture, 55.6 ml of 2M Glucose (D-(+)-Glucose, Sigma), 5 mL of 1M MgCl2 (Magnesium chloride, Junsei) 1 mL of 34 mg/mL chloramphenicol (Sigma) were added to 2×YT media. Colonies obtained through mono-phage ELISA were selected and placed in 5 mL of prepared media (2×YT-GMC) to be cultured for 16 hours at 37° C. with shaking incubator (VS-8480, Vision). 100 μL of each culture was transferred to 10 mL 2×YT-GMC individually which were cultured at 37° C. in the incubator until detection value at O.D. 600 nm reached 0.5. Once detection value has reached 0.5 at O.D. 600 nm, 5 mL of each culture were obtained as samples to be infected. Following sample preparation, 50 μL of […] was added to individual samples then incubated at 37° C. without shaking for 30 minutes and with shaking for additional 30 minutes. Individual cultures were centrifuged for 15 minutes at 3,850 rpm using Micro centrifuge (Micro12, Hanil). The supernatants of centrifuged cultures were removed to be kept separate and replaced with 5 mL of 2×YT media containing 1 mL of IM IPTG (AG Scientific), 5 mL of 1M MgCl2.1 ml of 70 μg/μL kanamycin (Biopure) and 1 mL of Chloramphenicol. The resulting pellets were dispersed thoroughly in newly added media followed by incubation at 30° C. for 16 hours with stirring.

FAM19A5 mutants M1 to M8 [2] = biological target: T2, FAM19A5 mutants M1 to M8 (Homo sapiens, UniProt Q7Z5A7, D109K/G107E/I112P/L110T/N113D/R114N); assay: Epitope mapping ELISA with FAM19A5 mutants M1-M8
T2 construct: made in house; host or cells: phage display with helper phage
T2 sequence (Q7Z5A7 26-125 isoform Q7Z5A7-2 G100E/D102K/L103T/I105P/N106D/R107N): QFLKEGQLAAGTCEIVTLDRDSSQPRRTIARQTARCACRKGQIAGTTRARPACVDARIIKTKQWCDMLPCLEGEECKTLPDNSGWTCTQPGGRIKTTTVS
Protocol: as §1, §2

Chain of FAM19A5 antigen (Q7Z5A7 44-132): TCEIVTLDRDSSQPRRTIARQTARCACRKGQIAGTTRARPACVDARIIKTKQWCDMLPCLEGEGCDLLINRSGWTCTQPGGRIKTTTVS

Row | cross-competition with the other anti-FAM19A5 antibodies (FAM19A5 antigen) | binding to FAM19A5 mutant M8 (FAM19A5 mutants M1 to M8 [1]) | binding to FAM19A5 mutant M7 (FAM19A5 mutants M1 to M8 [2]) | Molecule
1 | cross-competed with one another | failed to bind |  | P2-F11: anti-FAM19A5 antibody; VH SEQ ID NO: 165, VL SEQ ID NO: 176 (antibody, V domains shown, P2-F11 VH; P2-F11 VL) VH: QEQLVESGGRLVTPGTTLTLTCTVSGFSLSSYGVSWVRQAPGKGLEWIGYIANNYNPHYASWAKGRFTISKTSSTTVDLKMTSLTTEDTATYFCARDNYGMDPWGPGTLVTVSS VL: ELDLTQTPSSVSAAVGGTVTINCQASQSVYNNKNLAWYQQKPGQPPKLLIYAASTLASGVSSRFKGSGSGTQFTLTISDVQCDDAATYYCQGEFSCSSADCNAFGGGTELEIL
2 |  | failed to bind |  | P1-A08: anti-FAM19A5 antibody; VH SEQ ID NO: 160, VL SEQ ID NO: 171 (antibody, V domains shown, P1-A08 VH; P1-A08 VL) VH: QSLEESGGRLVTPGTPLTLTCTASGFSLSTYYMSWVRQAPGKGLEWIGIVYPSGTTYYANWAKGRFTISTASTTVDLMITSPTTEDTATYFCARGDSFGYGLWGPGTLVTVSS VL: ELVLTQSPSVQVNLGQTVSLTCTADTLSRSYASWYQQKPGQAPVLLIYRDTSRPSGVPDRFSGSSSGNTATLTISGAQAGDEADYYCATSDGSGSNYQYVFGGGTQLTVT
3 |  | failed to bind |  | P1-F02: anti-FAM19A5 antibody; VH SEQ ID NO: 161, VL SEQ ID NO: 172 (antibody, V domains shown, P1-F02 VH; P1-F02 VL) VH: QSLEESGGRLVTPGTPLTLTCTASGFSLSNYYMGWVRQAPGEGLEWIGIIYASGSTYYASWAKGRFTISKTSTTVDLKMTSLTTEDTATYFCARIDIGVGDYGWAYDRLDLWGQGTLVTVSS VL: ELDMTQTPPSLSASVGETVRIRCLASEDIYSGISWYQQKPGKPPTLLIYGASNLESGVPPRFSGSGSGTDYTLTIGGVQAEDAATYYCLGGYSYSSITFGAGTNVEIK
4 |  | failed to bind |  | P2-F07: anti-FAM19A5 antibody; VH SEQ ID NO: 164, VL SEQ ID NO: 175 (antibody, V domains shown, P2-F07 VH; P2-F07 VL) VH: QSLEESGGRLVTPGTPLTLTCTASGFSLSSYYMNWVRQAPGKGLEWIGIIYPSGTTYYAGWAKGRFTISKTSTTVDLKITSPTSEDTATYFCARTVSGYFDIWGPGTLVTVSL VL: ELDLTQTPPSLSASVGGTVTINCLASEDIYSALAWYQQKPGKPPTLLISGTSNLESGVPPRFSGSGSGTDYTLTIGGVQAEDAATYFCQGYSSYPLTFGAGTNVEIK
5 |  | failed to bind | reduced binding | 13F7: anti-FAM19A5 antibody; VH SEQ ID NO: 157, VL SEQ ID NO: 168 (antibody, V domains shown, 13F7 VH; 13F7 VL) VH: QVQLQEWGAGLLKPSETLSLTCAINAESFNGYSWTWIRQTPGKGLEWIGEISHFGSANYNPSLKSRATISADKSKNQFSLKLTSVTAVDTAVYYCARALRGTYSRFYYGMDVWGQGTTVTVSS VL: DIVMTQTPLSLPVAPGEPASISCRSSQSLLHSNGYNYLDWYVQKPGQPPQLLIYLGSNRASGVPDRFSGSGSGTDFTLKISRVEAEDVGVYYCMQARQTPLTFGGGTKVEIK
6 |  | failed to bind |  | P2-A01: anti-FAM19A5 antibody; VH SEQ ID NO: 162, VL SEQ ID NO: 173 (antibody, V domains shown, P2-A01 VH; P2-A01 VL) VH: QEQLVESGGRLVTPGTPLTLSCTASGFFLSGYYMSWVRQAPGKGLEWIGIIYPSGSTDYASWAKGRFTISKTSTTVDLKITTPTTEDTATYFCARVAGYVGYGYETFFDIWGPGTLVTVSL VL: ELVMTQTPPSLSASVGETVRIRCLASEDIYSGISWYQQKPGKPPTLLIYGASNLESGVPPRFSGSGSGSDYTLTIGGVQAEDAATYYCLGGVTYSSTGTHLTFGAGTNVEIK
7 |  | failed to bind | reduced binding | 15A9: anti-FAM19A5 antibody; VH SEQ ID NO: 158, VL SEQ ID NO: 169 (antibody, V domains shown, 15A9 VH; 15A9 VL) VH: QVQLQESGPGLVKPSETLSLTCTVSGGSISSYYWSWIRQPPGKGLEWIGYIYPSGSTNYNPSLKSRVTISVDTSKNQFSLNLKSVTAVDTAVYYCARVNPFGYYYAMDVWGQGTTVTVSS VL: DIQMTQSPSSLSASVGDRITISCRASQSISTSLNWYQQTPGKAPRLLIYGASTLQSGVPSRFSGGGSGTDFSLTITSLQPEDFATYYCQESASIPRTFGQGTKLDIK
8 | cross-competed with one another | failed to bind |  | P2-A03: anti-FAM19A5 antibody; VH SEQ ID NO: 163, VL SEQ ID NO: 174 (antibody, V domains shown, P2-A03 VH; P2-A03 VL) VH: QSVEESGGRLVTPGTPLTLTCTVSGFSLNNYDMSWVRQAPGKGLEYIGFMDTDGSAYYATWAKGRFTISRTSTTVDLKMTSPTTEDTATYFCARRGSSYYGGIDIWGPGTPVTVSL VL: ELDLTQTPASVSEPVGGTVTIKCQASQSIGGNLAWYQQKPGQPPKLLIYRASTLASGVPSRFKGSGSGTDFTLTISDLECADAATYYCQSPAYDPAAYVGNAFGGGTELEIL
